Consider 2 molecules from paper PMC3639176, “HnRNP A1/A2 and SF2/ASF Regulate Alternative Splicing of Interferon Regulatory Factor-3 and Affect Immunomodulatory Functions in Human Non-Small Cell Lung Cancer Cells”.

Data set [1] deals with GST-hnRNP A1 (UniProt P09651 1-372). In words: EMSA; 2 ug tRNA competitor; LightShift Chemiluminescent EMSA kit; 20 fmol biotinylated RNA, 50 ng protein (20 ng in Fig. 3 legend), 2 ug tRNA, 20 ul, 20 min, room temperature; 6% native PAGE; buffer, salt and pH not stated. To be noted: protein: recombinant; label: 3' biotin.
Data set [2] has as its target GST-SF2/ASF (UniProt Q07955 1-248). Described as above. To be noted: protein: recombinant; label: 3' biotin.

Chain of GST-SF2/ASF (Q07955 whole entry): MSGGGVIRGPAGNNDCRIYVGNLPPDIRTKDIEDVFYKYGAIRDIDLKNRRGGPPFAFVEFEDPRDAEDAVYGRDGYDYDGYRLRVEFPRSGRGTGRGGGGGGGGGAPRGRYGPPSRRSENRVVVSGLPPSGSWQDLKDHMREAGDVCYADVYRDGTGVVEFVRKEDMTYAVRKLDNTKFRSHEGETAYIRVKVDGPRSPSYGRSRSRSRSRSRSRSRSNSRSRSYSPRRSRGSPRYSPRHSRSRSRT
Chain of GST-hnRNP A1 (P09651 whole entry): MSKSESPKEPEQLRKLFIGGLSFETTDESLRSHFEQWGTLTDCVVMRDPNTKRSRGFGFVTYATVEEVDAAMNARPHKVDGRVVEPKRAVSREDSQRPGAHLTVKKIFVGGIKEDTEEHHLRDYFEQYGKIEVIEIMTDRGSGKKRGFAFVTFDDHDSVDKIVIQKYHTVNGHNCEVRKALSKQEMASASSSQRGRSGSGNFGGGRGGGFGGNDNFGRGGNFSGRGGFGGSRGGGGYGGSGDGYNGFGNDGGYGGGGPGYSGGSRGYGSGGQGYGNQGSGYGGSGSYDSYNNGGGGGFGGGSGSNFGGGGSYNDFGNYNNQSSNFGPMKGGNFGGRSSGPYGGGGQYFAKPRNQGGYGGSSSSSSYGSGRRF

B1: wt-A1 (ssRNA)
RNA: UGAAAUAACUAGGGAAAGAGGAUG
As to B1, the binding result in data set [1] is “binds”.

B2: wt-SF2 (ssRNA)
RNA: ACGCUGGGGAAGGAUGUGCCAUGGAUAUGGGAAGGAACCCUAG
Take B2: in data set [2], the binding result is “binds”.
